Results: patent CN114075285A (REYOUNG SUZHOU BIOPHARMACEUTICAL CO LTD, dated 2022)

Legend:
[1] = molecular target: CD38 antigen on the cell surface (Daudi cells; NCI-H929 cells) (human, UniProt P28907 1-300); experiment: cell-based or functional assay
[2] = molecular target: T1, CD38 (human), analyte in Biacore (human, UniProt P28907 43-300, limits assumed); experiment: SPR (Biacore 8K), antibody captured on Protein A chip, CD38 as analyte, 25℃
T1 construct: also called 分析物CD38; 人的CD38蛋白

B1: RB0021-S3 (antibody)
chain 1: not shown
chain 2: DVQMTQSPSSVSASVGDRVTITCRSSQSPEHSNGNTYLHWYQQKPGKAPKLLIYKVSNRFSGVPSRFSGSGSGTDFTLTISSLQPEDFATYFCSQGTHFPFTFGQGTKVEIKRTVAAPSVFIFPPSDEQLKSGTASVVCLLNNFYPREAKVQWKVDNALQSGNSQESVTEQDSKDSTYSLSSTLTLSKADYEKHKVYACEVTHQGLSSPVTKSFNRGEC
ADCC reporter (Jurkat-Lucia-NFAT-CD16 + NCI-H929), EC50(μg/mL) [1]: 0.011 µg/mL
Kd [2]: 1.04 nM

B2: RB0021-S4 (antibody)
chain 1: not shown
chain 2: B1 chain 2
ADCC reporter (Jurkat-Lucia-NFAT-CD16 + NCI-H929), EC50(μg/mL) [1]: 0.014 µg/mL
Kd [2]: 1.04 nM
